Source: patent publication US20240262915A1 (NANJING SANHOME PHARMACEUTICAL, published 2024)

T1: full-length TIGIT on hTIGIT-CHO-K1 cells (human, UniProt Q495A1 22-244)
T1 construct: CHO-K1 cells stably transfected with pTargeT-TIGIT; also called TIGIT on cell surface
T1 sequence: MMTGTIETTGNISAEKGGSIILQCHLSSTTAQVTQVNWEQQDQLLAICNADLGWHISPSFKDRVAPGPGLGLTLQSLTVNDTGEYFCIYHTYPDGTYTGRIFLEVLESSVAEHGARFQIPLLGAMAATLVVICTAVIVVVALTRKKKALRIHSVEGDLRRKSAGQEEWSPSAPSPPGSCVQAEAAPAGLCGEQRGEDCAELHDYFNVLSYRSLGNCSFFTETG

T2: Human TIGIT-His protein (Sino Biological, 10917-H08H) (human, UniProt Q495A1 22-141)
T2 sequence (looked up): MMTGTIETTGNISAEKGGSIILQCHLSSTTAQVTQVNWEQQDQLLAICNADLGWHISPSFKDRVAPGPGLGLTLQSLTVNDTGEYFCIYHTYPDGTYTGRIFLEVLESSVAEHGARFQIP

T3: TIGIT-mFc (extracellular region of human TIGIT with mIgG1-Fc tag) (human)
T3 construct: A bought TIGIT-mFc (Acro Biosystems TIT-H5253) is used for immunization; also called recombinant humanized TIGIT-mFc
T3 chain: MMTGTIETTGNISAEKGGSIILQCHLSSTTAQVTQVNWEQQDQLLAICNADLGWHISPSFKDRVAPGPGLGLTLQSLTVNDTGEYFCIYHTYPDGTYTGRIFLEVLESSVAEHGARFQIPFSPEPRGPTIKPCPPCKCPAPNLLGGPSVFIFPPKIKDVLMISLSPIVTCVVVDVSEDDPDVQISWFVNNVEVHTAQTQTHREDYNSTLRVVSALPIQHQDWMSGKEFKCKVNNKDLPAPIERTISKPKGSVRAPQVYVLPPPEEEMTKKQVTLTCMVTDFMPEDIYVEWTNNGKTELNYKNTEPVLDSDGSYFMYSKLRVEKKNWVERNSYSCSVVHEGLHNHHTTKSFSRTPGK

T4: TIGIT-his (extracellular region of human TIGIT protein fused with his) (human, UniProt Q495A1 22-141)
T4 construct: also called antigen TIGIT-his
T4 sequence: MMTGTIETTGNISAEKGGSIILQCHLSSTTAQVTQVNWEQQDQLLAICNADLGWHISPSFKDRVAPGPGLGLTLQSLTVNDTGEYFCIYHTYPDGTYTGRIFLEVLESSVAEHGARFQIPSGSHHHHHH

T5: TIGIT on TIGIT/NFAT-reporter-Jurkat cells (UniProt Q495A1 22-244, limits assumed)
T5 sequence (looked up): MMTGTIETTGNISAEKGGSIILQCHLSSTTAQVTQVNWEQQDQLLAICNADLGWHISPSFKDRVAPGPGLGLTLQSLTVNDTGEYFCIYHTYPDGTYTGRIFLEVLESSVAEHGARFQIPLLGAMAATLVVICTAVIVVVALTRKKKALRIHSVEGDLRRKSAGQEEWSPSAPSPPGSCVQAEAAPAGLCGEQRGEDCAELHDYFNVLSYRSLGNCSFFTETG


Columns and labels:
[1] = target: T1, full-length TIGIT on hTIGIT-CHO-K1 cells; test: FACS on hTIGIT-CHO-K1 cells
[2] = target: T2, Human TIGIT-His protein (Sino …); test: ELISA, human TIGIT-His coated
[3] = target: T3, TIGIT-mFc (extracellular region of …); test: ELISA, blocking of TIGIT-mFc binding to coated CD155-hFc (competitor CD155-hFc)
PD-L1-his = target: T6, PD-L1-his (human, UniProt Q9NZQ7 19-238, limits assumed); test: BLI, Fortebio Octet RED96, antibody on AHC sensor, PD-L1-his in solution
T6 construct: also called human PD-L1 protein
T6 sequence (Q9NZQ7 19-238 limits assumed): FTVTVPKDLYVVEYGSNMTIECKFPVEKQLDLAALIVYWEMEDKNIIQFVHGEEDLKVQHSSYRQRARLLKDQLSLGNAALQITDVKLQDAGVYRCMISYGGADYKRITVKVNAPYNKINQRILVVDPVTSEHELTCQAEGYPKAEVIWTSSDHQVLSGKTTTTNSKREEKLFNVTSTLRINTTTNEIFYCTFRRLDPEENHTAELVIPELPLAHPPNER

[4] = target: T4, TIGIT-his (extracellular region of …); test: BLI, Fortebio Octet RED96, antibody on AHC sensor, TIGIT-his in solution
[5] = target: T3, TIGIT-mFc (extracellular region of …); test: FACS, blocking of TIGIT-mFc binding to cells (TIGIT/CD155; cells printed as hTIGIT-CHO-K1)
[6] = target: T5, TIGIT on TIGIT/NFAT-reporter-Jurkat …; test: cell-based or functional assay

Binder	EC50 [1] [nM]	EC50 [2] [nM]	IC50 [3] [nM]	Kd (PD-L1-his) [nM]	koff (PD-L1-his) [s⁻¹]	kon (PD-L1-his) [M⁻¹ s⁻¹]	also measured
HuPL1642-T2353-ScFab (bispecific antibody, human IgG4 S228P, kappa) chain 1: DIQMTQSPSSLSASVGDRVTITCRTSQDIGNSLRWFQQKPGKAPKLLIHGATNLANGVPSRFSGSGSGTDFTLTISSLQPEDFATYYCLQHNEYPLTFGCGTKLEIKRTVAAPSVFIFPPSDEQLKSGTASVVCLLNNFYPREAKVQWKVDNALQSGNSQESVTEQDSKDSTYSLSSTLTLSKADYEKHKVYACEVTHQGLSSPVTKSFNRGECGGGGSGGGGSGGGGSGGGGSGGGGSGGGGSGGGGSGGGGSEVQLVESGGGLVQPGGSLRLSCAASGFTFSDHWMSWVRQAPGKCMEWIGNIQYDGSYTNYAPSLKNRFTISRDNAKNSLYLQMNSLRAEDTATYYCTRGHFRITMASMGASASVYWGQGTMVTVSSASTKGPSVFPLAPCSRSTSESTAALGCLVKDYFPEPVTVSWNSGALTSGVHTFPAVLQSSGLYSLSSVVTVPSSSLGTKTYTCNVDHKPSNTKVDKRVESKYGPPCPPCPAPEFLGGPSVFLFPPKPKDTLMISRTPEVTCVVVDVSQEDPEVQFNWYVDGVEVHNAKTKPREEQFNSTYRVVSVLTVLHQDWLNGKEYKCKVSNKGLPSSIEKTISKAKGQPREPQVYTLPPCQEEMTKNQVSLWCLVKGFYPSDIAVEWESNGQPENNYKTTPPVLDSDGSFFLYSRLTVDKSRWQEGNVFSCSVMHEALHNHYTQKSLSLSLGK chain 2: DIVMTQSPDSLAVSLGERVTMRCKSSQSLSWSENQNNYLSWYQQKPGQPPKLLIYGASIRESGVPDRFSGSGSGTDFTLTISSVQAEDVGVYYCQHNHGSFLPYTFGCGTKLEIKRTVAAPSVFIFPPSDEQLKSGTASVVCLLNNFYPREAKVQWKVDNALQSGNSQESVTEQDSKDSTYSLSSTLTLSKADYEKHKVYACEVTHQGLSSPVTKSFNRGECGGGGSGGGGSGGGGSGGGGSGGGGSGGGGSGGGGSGGGGSQVQLVQSGAEVAKPGASVKMSCKASGYTFTRNTMHWIKQAPGQCLEWIGFIDPHNTYTRYNQKFKDRATLTADTSASTAYMELSSLRSEDTAVYYCARWPMDYWGQGTLVTVSSASTKGPSVFPLAPCSRSTSESTAALGCLVKDYFPEPVTVSWNSGALTSGVHTFPAVLQSSGLYSLSSVVTVPSSSLGTKTYTCNVDHKPSNTKVDKRVESKYGPPCPPCPAPEFLGGPSVFLFPPKPKDTLMISRTPEVTCVVVDVSQEDPEVQFNWYVDGVEVHNAKTKPREEQFNSTYRVVSVLTVLHQDWLNGKEYKCKVSNKGLPSSIEKTISKAKGQPREPQVCTLPPSQEEMTKNQVSLSCAVKGFYPSDIAVEWESNGQPENNYKTTPPVLDSDGSFFLVSRLTVDKSRWQEGNVFSCSVMHEALHNHYTQKSLSLSLGK				1.15	0.000212	184000	Kd [4]: 13.9 nM; koff [4]: 0.00487 s⁻¹; kon [4]: 350000 M⁻¹ s⁻¹; IC50 [5]: 1.51 nM
SHS006-23 (antibody, V domains shown) VH: EVQLVESEGGLVQPGASVKLSCVGSGFSFSDHWMSWVRQTPGKTMEWIGNIQYDGSYTNYAPSLKNRFTISRDNAKNTLYLQMTNLRSEDTATYYCTRGHFRITMASMGASASVYWGQGVMVTVSS VL: DIQMTQSPSSLPTSLGDRVTITCRTSQDIGNSLRWFQQKPGKSPRLMIHGATNLANGVPSRFSGSRAGSDYSLTINSLESEDMAMYYCLQHNEYPLTFGSGTKLEIK							EC50 (nM), luciferase expression induced by anti-TIGIT antibody [6]: 0.019 nM; Top (fold), luciferase expression induced by anti-TIGIT antibody [6]: 1.62 fold
HuPL7-21 (antibody, IgG4, V domains shown, also called humanized anti-PD-L1 antibody HuPL7-21) VH: QVQLQESGPGLVKPSQTLSLTCTVSGDSITSGYWNWIRQHPGKGLEYIGYISYTGSTYYNLSLKSRVTISRDTSKNQFSLKLSSVTAADTAVYYCARYILWLRHFDYWGQGTLVTVSS VL: not shown				1.49	0.000276	185000	

More lines, main results first:

EC50 [1] [nM]	EC50 [2] [nM]	IC50 [3] [nM]	Kd (PD-L1-his) [nM]	koff (PD-L1-his) [s⁻¹]	kon (PD-L1-his) [M⁻¹ s⁻¹]	Binder	also measured
0.408	1.58	1.03				SHS006-17CHI (antibody, V domains shown, Chimeric antibody with human heavy and light chain constant regions) VH: QVTLKESGPGILQPSQTLSLTCTFSGFSLRTYGLGVGWIRQLSGKGLEWLANIWWDDDEYYNPSLKNRLTISKDTSNNQAFLKITNVDTADTATYYCARIARPHYYWDGRYILDVWGQGASVTVSS VL: DIMMTQSPLSVAVTPGESASISCRSSKSLLHSNGITYLSWYLQRPEKSPQLLIFQISNLASGVSDRFSGSGSGTDFTLIISKVETEDVGIYYCMQFLEVPYTFGAGTKLELK	
0.235	1.69	1.04				SHS006-23CHI (antibody, V domains shown, Chimeric antibody with human heavy and light chain constant regions) VH: EVQLVESEGGLVQPGASVKLSCVGSGFSFSDHWMSWVRQTPGKTMEWIGNIQYDGSYTNYAPSLKNRFTISRDNAKNTLYLQMTNLRSEDTATYYCTRGHFRITMASMGASASVYWGQGVMVTVSS VL: DIQMTQSPSSLPTSLGDRVTITCRTSQDIGNSLRWFQQKPGKSPRLMIHGATNLANGVPSRFSGSRAGSDYSLTINSLESEDMAMYYCLQHNEYPLTFGSGTKLEIK	
